Measurements: publication PMC8660800

Target: NOT9 module of the human CCR4-NOT complex (human) (UniProt Q92600)

inhibition of deadenylation by 50 nM CCR4-NOT MINI (50 nM 7-mer-A20 RNA, stopped after 32 min), MBP-RNF219-C titrated 0.05-5.0 µM; inhibition already apparent at 0.05 µM: 2.5 µM
B1: MBP-RNF219-C (residues 434-726) with a C-terminal StrepII tag (domain or fragment)
chain: SSNVSNKDSSEDDISRSENEKKSECFSSPKTGFWDCCSTSYAQNLDFESSEGNTIANSVGEISSKLSEKSGLCLSKRLNSIRSFEMNRTRTSSEASMDAAYLDKISELDSMMSESDNSKSPCNNGFKSLDLDGLSKSSQGSEFLEEPDKLEEKTELNLSKGSLTNDQLENGSEWKPTSFFLLSPSDQEMNEDFSLHSSSCPVTNEIKPPSCLFQTEFSQGILLSSSHRLFEDQRFGSSLFKMSSEMHSLHNHLQSPWSTSFVPEKRNKNVNQSTKRKIQSSLSSASPSKATKS
